The target in this assay is Full-length human Nf1-23a (neurofibromin isoform 2) (human) (UniProt P21359). The assay can be described thus: cryo-EM structure; single-particle cryo-EM of purified Nf1-23a at ~0.5 mg/ml in 20 mM Tris pH 8.0, 300 mM NaCl, 2 mM DTT, grids frozen at 4 °C; native sample and sample incubated 90 min with 50 µM ZnCl2; homodimer, no symmetry imposed (C1). The note with it: remark: other sources report otherwise.

In turn, “Full-length human Nf1-23a (neurofibromin isoform 2), P21359 1-2839” came in with a stoichiometry N of 2.

Values taken from article PMC8580823.
